This is an account of results in the DeepSol protein solubility set.

This data set is described as follows: soluble on expression in E. coli; label from the status in PepcDB or PDB records.
Consider “MTVRIAINGFGRIGRNVVRALYESGRRAEITVVAINELADAAGMAHLLKYDTSHGRFAWEVRHEREQLFVGDDVIRILHERTLADLPWRELGVDVVLDCTGVYGNREHGEAHIAAGAKKVLFSHPGSNDLDATVVFGVNQNQLRAEHRIVSNASCTTNCIIPVIKLLDDAYGIESGTVTTIHSAMNDQQVIDAYHSDLRRTRAASQSIIPVDTKLAAGITRIFPQFNDRFEAIAVRVPTINVTAIDLSVTVKKPVKASEVNQLLQKAAQGAFHGIVDYTESPLVSIDFNHDPHSAIVDGTQTRVSGAHLIKTLVWCDNEWGFANRMLDTTLAMAAVGFRLDASASTKL”, for which the “soluble on expression in E. coli” value is recorded as “not soluble”.
Regarding “MLKSAFILASAPLFFTLAACSGESGTQVNTASAPATQVSRNIGSTVKNRGKLICGVSGELPGFSFVGTDAKYSGIDVDVCRAVTAALFDNPDAVEFRNLNTKERFTALQTGEIDLLSRNTTWTMSRETSVGLQFAPVIFYDGQAIMVSKNSGIKSLADLKNKAICTQTGTTTEQNLADQMRKRSITYKPVVFEDVNITFATYAEGRCDGVTTDRSALISRRTTLPKPEDNIILDELLSSEPLAPAVAKGDPQWNDIVKWVVYSLVKAEELGINSQNIAQLTNSNDPDIKRFLGTEGNLGEGLGLTNDFAARIVKHVGNYGEVYDRNLGGKTKLNLPRGQNQLAIKGGLLYSPPFR”, the “soluble on expression in E. coli” value is recorded as “not soluble”.
Turning to “MGSDKIHHHHHHMVGENMDIFVSDYEKQYKEILTGFDPTTFSETWVENQQWQLDFYVEKTRNNQDVFDLLNHESSVYLDGQEFVVKQLKRGAVGKIVYSEVTATHIYFTMQDDYQYNAISGSKSAKDCLTHIFAADKQGFSFELIDKNKVLENITQENFGNGNLLKLVQEVLEDYKLVMLADNKRLTFIPSEDYGEHTENEIRYNKHTNEVDFDIDTLSLRTQIKGYGKVDSNGNNYFPPVTFTSPESAKWGVRIQEPLSDERYTTSSSMLRRLKLELQDYPATTGNISLKLKYECGKGDYVMFVYEPLGLLYEVQIVAYKKYIFTNKPPELTLSNNKKTMVSIMVQLAKAIKRGAK”, the “soluble on expression in E. coli” value was “not soluble”.
In the case of “AHHHHHHGSKIATIVGARPQFIKMAPVSRELRKYFEEVVIHTGQHYDYEMDRIFFEQLNIPEPDYNLGVGSGSHGYQIGEMLKKIEEVLIKEKPDLVMVFGDTNSTLAGALAAAKLKIKVAHVEAGLRSFDKSMPEEINRILTDHVSDYLFAPTETAVKNLYNEGIRNGVYLTGDVMLDALLYNVKIAERCSEILNKLGLKPKEFCLATVHRAENTDNLERLKNIIDAFVECKETIVFPVHPRTEKVLKAYGLYDSLKKAENVILIKPVGYLDMLMLEKNAKKILTDSGGVQKEAYFLKVPCITLRERTEWVETVEDGWNVLVGADKEKILRAVREFEPSGETYTYKFGDGRASEKIAEVIKNVDR” it was “not soluble”; in that of “SLLTTCKSVLKLPYLEKIKVVAGEKGLNRIITWVQVVEYPEYSKWLKGGELILISGIAIKNNINSLVNFIRDINSRSLSGIVISIGPYIKEIPKEVIEIGNQLDFPIFEIPFEVKFIDVSQSICKAIFANKVNQESMENFMKDIIFRDFTFSEDILSRAVAYGYNPKTKYISFVVELHNEKDMLECDLKTKQYIEQIVIEVLGEWNKRSIHIMQYNSIILMLPKNEKRTIKNIAMNIIEEIISKAKNTSVNIGVGGEFSELRDFKISVSEAHRCLKVLKLNNDNNTVISYDELGIYKLFFQMDNLEEMKKFYLDVLKKLIDYDSKN”, “soluble”; in that of “EYKPKKGLASCWLSSKSHTLLNEEDFFTKDERIGIRKDYEGATNDDAFFCQRYYRFKNFKEVEGEKTKVCKQPPVREHDFCFAVLLETHRDIKHEELNKRIVYLGGERQPFLMDLMEVSEETFKLNIESSTLTSDEKHYTVVLLSDAMIEPKLLEGVKFASTEVKDFACLLTHVGTRRFYNKKKKREEQNIEEVETALSHQHELYARGSVFYFDTKEQANQFCEDLEKVPNFHTIGYNHAIIIEPTKTKK”, “not soluble”.
Next, “PFLELDTNLPANRVPAGLEKRLCAAAASILGKPADRVNVTVRPGLAMALSGSTEPCAQLSISSIGVVGTAEDNRSHSAHFFEFLTKELALGQDRILIRFFPLESWQIGKIGTVMTFL”: “soluble”; “MSIIFNQRIEIIRAGEKRSVYSSDVMEDWDNPVVLPVEVPVSIQPVSSTESDATANRSYVTSRFRLFSPPGIDIPQLKAKDRVRIGLLVLDVVGDPARWPHPLKPATVHHVEADLEVHRG”: “not soluble”.
